How the values were obtained:
Assay in all cases: IEDB peptide-MHC binding, purified MHC/competitive/radioactivity; filed as Kd, often an IC50 or EC50 that approximates it; ≥ and ≤ were set here for values at or beyond the usual limits of such assays
HLA-A*31:01 = target: HLA-A*31:01
HLA-A*33:01 = target: HLA-A*33:01
HLA-A*03:01 = target: HLA-A*03:01
HLA-A*11:01 = target: HLA-A*11:01
HLA-A*68:01 = target: HLA-A*68:01
[1] = source organism: Dengue virus 3 Martinique/1243/1999
[2] = source organism: SARS coronavirus Tor2
[3] = source organism: Vaccinia virus WR
[4] = source organism: Dengue virus 1 Brazil/97-11/1997
[5] = source organism: Dengue virus 4 Philippines/H241/1956
[6] = source organism: Dengue virus 2 Jamaica/1409/1983
[7] = source organism: Dengue virus 1 Singapore/S275/1990
[8] = source organism: Lassa virus Josiah
[9] = source organism: Dengue virus 4 Dominica/814669/1981

With AIWYMWLGAR the Kd (HLA-A*31:01; [1]) was 42.3 nM and the Kd (HLA-A*33:01; [1]) was 57.3 nM.

For ALAFHLTSR, the Kd (HLA-A*03:01; [1]) was 34.9 nM.

For AQPLPQRQK, the Kd (HLA-A*11:01; [2]) was 879 nM, the Kd (HLA-A*03:01; [2]) was ≥ 23600 nM and the Kd (HLA-A*68:01; [2]) was 3030 nM. For the same sequence, the Kd (HLA-A*31:01; [2]) was ≥ 53200 nM and the Kd (HLA-A*33:01; [2]) was ≥ 77700 nM.

For ASGNLLLDK, the Kd (HLA-A*11:01; [2]) was 29.8 nM, the Kd (HLA-A*03:01; [2]) was 694 nM and the Kd (HLA-A*68:01; [2]) was ≥ 38100 nM. The Kd (HLA-A*31:01; [2]) was 13500 nM and the Kd (HLA-A*33:01; [2]) was ≥ 77700 nM.

Work on ATNNVFRLK yielded a Kd (HLA-A*68:01; [2]) of 11.6 nM, a Kd (HLA-A*31:01; [2]) of 2.57 nM and a Kd (HLA-A*33:01; [2]) of 6410 nM.

AVHECFVKR gave a Kd (HLA-A*11:01; [2]) of 440 nM, a Kd (HLA-A*03:01; [2]) of 3320 nM and a Kd (HLA-A*68:01; [2]) of 79.6 nM. The Kd (HLA-A*31:01; [2]) was 39 nM and the Kd (HLA-A*33:01; [2]) was 1270 nM.

In the case of AVRYYDGNIY, the Kd (HLA-A*11:01; [3]) is reported as 272 nM, the Kd (HLA-A*03:01; [3]) is reported as 2500 nM and the Kd (HLA-A*68:01; [3]) is reported as 3040 nM. For the same sequence, the Kd (HLA-A*31:01; [3]) was ≥ 70000 nM and the Kd (HLA-A*33:01; [3]) was ≥ 70000 nM.

Work on AVVADLSAR yielded a Kd (HLA-A*11:01; [3]) of 51.8 nM, a Kd (HLA-A*03:01; [3]) of 141 nM and a Kd (HLA-A*68:01; [3]) of 6.45 nM. For the same sequence, the Kd (HLA-A*31:01; [3]) was 26.6 nM and the Kd (HLA-A*33:01; [3]) was 712 nM.

CAGVIEYAK gave a Kd (HLA-A*11:01; [3]) of 192 nM, a Kd (HLA-A*03:01; [3]) of 988 nM and a Kd (HLA-A*68:01; [3]) of 51.1 nM. For the same sequence, the Kd (HLA-A*31:01; [3]) was 2220 nM and the Kd (HLA-A*33:01; [3]) was 1190 nM.

For DFRNRYEDY, the Kd (HLA-A*11:01; [3]) was 7930 nM, the Kd (HLA-A*03:01; [3]) was 2770 nM and the Kd (HLA-A*68:01; [3]) was 3700 nM. For the same sequence, the Kd (HLA-A*31:01; [3]) was ≥ 77900 nM and the Kd (HLA-A*33:01; [3]) was 96.4 nM.

DLVKSSFVK was tested, and the Kd (HLA-A*11:01; [3]) was 127 nM, the Kd (HLA-A*03:01; [3]) was 1790 nM and the Kd (HLA-A*68:01; [3]) was 77 nM. It also gave a Kd (HLA-A*31:01; [3]) of 94.2 nM and a Kd (HLA-A*33:01; [3]) of 905 nM.

DLVKSYSLIR was tested, and the Kd (HLA-A*11:01; [3]) was 6720 nM, the Kd (HLA-A*03:01; [3]) was ≥ 10000 nM and the Kd (HLA-A*68:01; [3]) was 1630 nM. The Kd (HLA-A*31:01; [3]) was 173 nM and the Kd (HLA-A*33:01; [3]) was 579 nM.

Sequence DTRTPRAKR has a Kd (HLA-A*33:01; [4]) of 29.8 nM.

EATARGARR showed a Kd (HLA-A*68:01; [4]) of 12.5 nM and a Kd (HLA-A*33:01; [4]) of 36.7 nM.

EGAWKHAQR showed a Kd (HLA-A*68:01; [5]) of 115 nM.

Work on EILKINSVK yielded a Kd (HLA-A*11:01; [3]) of 1540 nM, a Kd (HLA-A*03:01; [3]) of 713 nM and a Kd (HLA-A*68:01; [3]) of 2.64 nM. For the same sequence, the Kd (HLA-A*31:01; [3]) was 2080 nM and the Kd (HLA-A*33:01; [3]) was 549 nM.

In the case of EMGANFKAER, the Kd (HLA-A*33:01; [6]) is reported as 15.5 nM.

In the case of ETKITFALKK, the Kd (HLA-A*11:01; [3]) is reported as 93.1 nM, the Kd (HLA-A*03:01; [3]) is reported as 1230 nM and the Kd (HLA-A*68:01; [3]) is reported as 74.8 nM. It also gave a Kd (HLA-A*31:01; [3]) of 8270 nM and a Kd (HLA-A*33:01; [3]) of 3200 nM.

Sequence FINFFNLLAK has a Kd (HLA-A*11:01; [3]) of 0.273 nM, a Kd (HLA-A*03:01; [3]) of 8.96 nM and a Kd (HLA-A*68:01; [3]) of 6.53 nM. It also gave a Kd (HLA-A*31:01; [3]) of 1820 nM and a Kd (HLA-A*33:01; [3]) of 427 nM.

For FLYLYALIY, the Kd (HLA-A*11:01; [2]) was 16300 nM, the Kd (HLA-A*03:01; [2]) was 6630 nM and the Kd (HLA-A*68:01; [2]) was ≥ 44400 nM. For the same sequence, the Kd (HLA-A*31:01; [2]) was 16900 nM and the Kd (HLA-A*33:01; [2]) was 17900 nM.

With FSKNILKYY the Kd (HLA-A*11:01; [3]) was ≥ 28900 nM, the Kd (HLA-A*03:01; [3]) was ≥ 21200 nM and the Kd (HLA-A*68:01; [3]) was 5490 nM. For the same sequence, the Kd (HLA-A*31:01; [3]) was 16300 nM and the Kd (HLA-A*33:01; [3]) was ≥ 77700 nM.

FSKSTSPTR was tested, and the Kd (HLA-A*11:01; [3]) was 12300 nM, the Kd (HLA-A*03:01; [3]) was ≥ 42200 nM and the Kd (HLA-A*68:01; [3]) was 9.78 nM. The Kd (HLA-A*31:01; [3]) was 20.6 nM and the Kd (HLA-A*33:01; [3]) was 387 nM.

FSNTILLSDK was tested, and the Kd (HLA-A*11:01; [3]) was 1.96 nM, the Kd (HLA-A*03:01; [3]) was 25.5 nM and the Kd (HLA-A*68:01; [3]) was 100 nM. The Kd (HLA-A*31:01; [3]) was 1260 nM and the Kd (HLA-A*33:01; [3]) was ≥ 62600 nM.

With FVKKFGLCNY the Kd (HLA-A*11:01; [3]) was 15100 nM, the Kd (HLA-A*03:01; [3]) was ≥ 22800 nM and the Kd (HLA-A*68:01; [3]) was ≥ 37100 nM. For the same sequence, the Kd (HLA-A*31:01; [3]) was 12200 nM and the Kd (HLA-A*33:01; [3]) was ≥ 45100 nM.

GFMRFFQLLR was tested, and the Kd (HLA-A*11:01; [3]) was 937 nM, the Kd (HLA-A*03:01; [3]) was 526 nM and the Kd (HLA-A*68:01; [3]) was 2410 nM. It also gave a Kd (HLA-A*31:01; [3]) of 53.7 nM and a Kd (HLA-A*33:01; [3]) of 86.3 nM.

Work on GLAMGIMILK yielded a Kd (HLA-A*11:01; [7]) of 69.8 nM and a Kd (HLA-A*03:01; [7]) of 20.7 nM.

GLSETGFMR gave a Kd (HLA-A*11:01; [3]) of 2710 nM, a Kd (HLA-A*03:01; [3]) of 16300 nM and a Kd (HLA-A*68:01; [3]) of 2130 nM. For the same sequence, the Kd (HLA-A*31:01; [3]) was 85.5 nM and the Kd (HLA-A*33:01; [3]) was 155 nM.

In the case of GLSSRATWAK, the Kd (HLA-A*11:01; [5]) is reported as 164 nM and the Kd (HLA-A*03:01; [5]) is reported as 35.2 nM.

Work on GSQLAKRFSR yielded a Kd (HLA-A*31:01; source organism: Dengue virus 3 Singapore/8120/1995) of 54.4 nM.

GTSNWTGNY gave a Kd (HLA-A*11:01; [3]) of 1.06 nM, a Kd (HLA-A*03:01; [3]) of 11.5 nM and a Kd (HLA-A*68:01; [3]) of 3720 nM. The Kd (HLA-A*31:01; [3]) was ≥ 77900 nM and the Kd (HLA-A*33:01; [3]) was ≥ 77700 nM.

GVFTTNIWLK gave a Kd (HLA-A*11:01; [6]) of 40.7 nM, a Kd (HLA-A*03:01; [6]) of 29.3 nM and a Kd (HLA-A*68:01; [6]) of 1.45 nM.

In the case of HLKVALYRR, the Kd (HLA-A*11:01; [3]) is reported as 9610 nM, the Kd (HLA-A*03:01; [3]) is reported as 1190 nM and the Kd (HLA-A*68:01; [3]) is reported as 67.1 nM. It also gave a Kd (HLA-A*31:01; [3]) of 0.197 nM and a Kd (HLA-A*33:01; [3]) of 9.72 nM.

Work on HSVFKGFSDK yielded a Kd (HLA-A*11:01; [3]) of 13.5 nM, a Kd (HLA-A*03:01; [3]) of 11.6 nM and a Kd (HLA-A*68:01; [3]) of 52 nM. The Kd (HLA-A*31:01; [3]) was 1420 nM and the Kd (HLA-A*33:01; [3]) was 14600 nM.

For ICKMPLPTK, the Kd (HLA-A*11:01; [8]) was 712 nM, the Kd (HLA-A*03:01; [8]) was 891 nM and the Kd (HLA-A*68:01; [8]) was 17200 nM. For the same sequence, the Kd (HLA-A*31:01; [8]) was 19800 nM and the Kd (HLA-A*33:01; [8]) was ≥ 47400 nM.

In the case of IGKMFESTYR, the Kd (HLA-A*33:01; [9]) is reported as 176 nM.

For IICEDAMYY, the Kd (HLA-A*11:01; [3]) was 196 nM, the Kd (HLA-A*03:01; [3]) was 2360 nM and the Kd (HLA-A*68:01; [3]) was 3660 nM. For the same sequence, the Kd (HLA-A*31:01; [3]) was ≥ 61400 nM and the Kd (HLA-A*33:01; [3]) was ≥ 77700 nM.

For IIMRCWLCWK, the Kd (HLA-A*11:01; [2]) was 0.426 nM, the Kd (HLA-A*03:01; [2]) was 1.65 nM and the Kd (HLA-A*68:01; [2]) was 0.903 nM. It also gave a Kd (HLA-A*31:01; [2]) of 14.4 nM and a Kd (HLA-A*33:01; [2]) of 198 nM.

Work on ILARWGSFKK yielded a Kd (HLA-A*03:01; [7]) of 9.69 nM.

With ILHAYCGIK the Kd (HLA-A*11:01; [3]) was 582 nM, the Kd (HLA-A*03:01; [3]) was 32.8 nM and the Kd (HLA-A*68:01; [3]) was 1860 nM. For the same sequence, the Kd (HLA-A*31:01; [3]) was 2620 nM and the Kd (HLA-A*33:01; [3]) was ≥ 33800 nM.

For ILSYIYSEIK, the Kd (HLA-A*11:01; [3]) was 62.1 nM, the Kd (HLA-A*03:01; [3]) was 38.8 nM and the Kd (HLA-A*68:01; [3]) was 1240 nM. The Kd (HLA-A*31:01; [3]) was ≥ 37000 nM and the Kd (HLA-A*33:01; [3]) was ≥ 70000 nM.

ILTYNKTSK showed a Kd (HLA-A*11:01; [3]) of 1260 nM, a Kd (HLA-A*03:01; [3]) of 45.8 nM and a Kd (HLA-A*68:01; [3]) of 442 nM. The Kd (HLA-A*31:01; [3]) was 1620 nM and the Kd (HLA-A*33:01; [3]) was ≥ 20100 nM.

Work on KAKIFTPEAR yielded a Kd (HLA-A*31:01; [9]) of 2.85 nM.
